For this assay, the target named is GPIIb/IIIa (UniProt P08514). The assay can be described thus: inhibition of hu Fibrinogen-Ru binding.

The results in this text go back to US20020168363A1, “Integrin/adhesion antagonists” (Amgen Inc., priority 2000, published 2002).

As to Fibrinogen, the IC50 is 10.5 nM and the Ki stood at 5.26 nM.

As usually defined, the IC50 is the concentration needed to halve the response being measured. The low end stands for inhibition by little substance, the high end for a need for much substance. As a reminder, the Ki is a dissociation constant, usually derived from enzyme kinetics or from competition with a known ligand.
